We go through one substance from publication PMC11708914.

For assay [1], the target named is USUV HA-NS5 (HA-tagged Usutu virus NS5) (Usutu virus) (UniProt Q5WPU5). The experiment in a line: co-IP; anti-HA agarose beads; lysates of transfected 293 T cells (lysis buffer with protease inhibitors and benzonase), overnight at 4 °C; UBA1 detected by Western blot. (Immunoblotting shows a protein as a band on a membrane.)
In assay [2] the target is ZIKV HA-NS5 (full-length Zika virus NS5 fused to an HA-tag in its N-terminus) (Zika virus). The description is as above.
Assay [3] addresses WNV HA-NS5 (HA-tagged West Nile virus NS5) (West Nile virus) (UniProt P06935). The assay is described as above.
Assay [4] deals with Recombinant His-tagged ZIKV NS5 (Zika virus). The assay can be described thus: pull-down; Ni-NTA agarose resin; 3 mg of whole-cell protein from 293 T cells incubated with 90 µg of recombinant His-tagged bait (BSA as control); UBA1 detected by Western blot.

Chain of UniProt Q5WPU5 (Q5WPU5 2530-3434): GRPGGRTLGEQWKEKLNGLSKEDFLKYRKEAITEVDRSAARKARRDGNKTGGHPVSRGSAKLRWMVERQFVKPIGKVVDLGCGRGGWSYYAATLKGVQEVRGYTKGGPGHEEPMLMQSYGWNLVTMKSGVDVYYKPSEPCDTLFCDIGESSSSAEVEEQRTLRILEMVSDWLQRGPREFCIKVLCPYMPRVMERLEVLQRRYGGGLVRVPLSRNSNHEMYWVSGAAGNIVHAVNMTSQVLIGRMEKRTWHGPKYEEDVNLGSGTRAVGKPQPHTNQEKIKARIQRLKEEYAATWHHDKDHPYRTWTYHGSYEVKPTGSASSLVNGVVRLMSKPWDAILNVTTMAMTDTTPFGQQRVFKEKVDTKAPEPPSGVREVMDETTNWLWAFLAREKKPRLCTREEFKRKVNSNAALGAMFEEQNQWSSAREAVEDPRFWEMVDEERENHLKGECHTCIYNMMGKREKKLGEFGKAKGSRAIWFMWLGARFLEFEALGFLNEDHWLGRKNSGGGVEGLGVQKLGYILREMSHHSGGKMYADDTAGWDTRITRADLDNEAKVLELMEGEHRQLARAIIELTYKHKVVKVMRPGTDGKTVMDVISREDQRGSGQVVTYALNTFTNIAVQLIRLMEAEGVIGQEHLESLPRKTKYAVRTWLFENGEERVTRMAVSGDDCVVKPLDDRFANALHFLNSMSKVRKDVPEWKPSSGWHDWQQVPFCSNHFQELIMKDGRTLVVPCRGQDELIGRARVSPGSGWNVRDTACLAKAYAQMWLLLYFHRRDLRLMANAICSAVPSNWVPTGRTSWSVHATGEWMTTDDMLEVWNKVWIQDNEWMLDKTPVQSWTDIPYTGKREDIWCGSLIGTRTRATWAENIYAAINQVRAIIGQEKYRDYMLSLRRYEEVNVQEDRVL
Chain of UniProt P06935 (P06935 2526-3430): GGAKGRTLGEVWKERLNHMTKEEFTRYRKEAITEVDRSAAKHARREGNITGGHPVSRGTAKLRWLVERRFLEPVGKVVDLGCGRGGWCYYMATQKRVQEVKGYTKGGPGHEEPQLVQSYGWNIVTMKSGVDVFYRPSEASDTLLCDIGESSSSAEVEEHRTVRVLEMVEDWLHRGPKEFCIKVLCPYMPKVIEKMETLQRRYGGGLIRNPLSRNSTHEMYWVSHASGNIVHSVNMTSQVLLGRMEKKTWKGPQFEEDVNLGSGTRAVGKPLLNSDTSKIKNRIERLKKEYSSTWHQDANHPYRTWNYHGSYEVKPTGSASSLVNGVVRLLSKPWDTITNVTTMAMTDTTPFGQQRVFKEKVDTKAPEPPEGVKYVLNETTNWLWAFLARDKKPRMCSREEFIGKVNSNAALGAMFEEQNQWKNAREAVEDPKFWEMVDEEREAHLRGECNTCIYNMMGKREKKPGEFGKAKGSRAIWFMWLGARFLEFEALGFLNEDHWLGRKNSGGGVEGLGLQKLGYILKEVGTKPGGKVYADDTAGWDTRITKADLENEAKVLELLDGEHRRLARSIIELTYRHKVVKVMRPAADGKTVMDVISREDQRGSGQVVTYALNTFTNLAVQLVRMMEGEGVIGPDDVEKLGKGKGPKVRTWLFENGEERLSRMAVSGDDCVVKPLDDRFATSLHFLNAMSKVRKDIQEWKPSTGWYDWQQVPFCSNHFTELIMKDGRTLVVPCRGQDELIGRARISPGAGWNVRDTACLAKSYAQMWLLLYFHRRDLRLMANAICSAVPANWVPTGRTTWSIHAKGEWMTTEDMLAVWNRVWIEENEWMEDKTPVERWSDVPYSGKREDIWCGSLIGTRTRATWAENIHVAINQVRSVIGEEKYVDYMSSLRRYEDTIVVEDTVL

As to “Ubiquitin-like modifier-activating enzyme 1 (UBA1), endogenous”, the fold enrichment over controls in assay [1] and in assay [3] was above 100 fold each time. Besides, the fold enrichment over controls (empty vector or EYFP) in assay [2] is above 100 fold. Besides, the amount of UBA1 relative to controls in assay [4] was above 4 times.
